In US20220125947A1 (published 2022):
Numbering of substitutions follows the chain as printed.

B1: VG9B115 (antibody, human IgG1, kappa, V domains shown)
VH: QVTLRESGPTLVKPTQTLTLTCTFSGFSLSTYGVGVGWIRQPPGKALEWLALIYWNDDKRYNPSLKSRLTITKDTSKNQVVLTMTNMDPVGTATYYCSHESDWSYYFDYWGQGTMVTVSS
VL: EIVLTQSPATLSLSPGERATLSCRASQSVSSYLAWYQQKPGLAPRLLIYDASNRATGIPARFSGSGSGTDFTLTISSLEPVDFAVYYCQQRSSWPWTFGQGTKVDIKR
notes: IgG1, kappa
B2: VG9B103 (antibody, human IgG1, kappa, V domains shown)
VH: EVQLVQSGAEVKKPGSSVKVSCKTSGGTFSSYAISWVRQAPGQGLEWMGGIIPIFGTATYAQKFQDRVTITADKSTSTAYMELSSLRSEDTAVFYCARGVGWGTDYYYGLDVWGQGTTVTVSS
VL: ETTLTQSPLSSPVTLGQPASISCRSSQGLVHSDGNTYLSWLQQRPGQSPRLLIYKISNRFSGVPDRFSGSGAGTDFTLKISRVEAEDVGVYYCMQATHHPLTFGGGTKVEIKR
notes: IgG1, kappa
B3: VG9B462 (antibody, human IgG1, lambda)
heavy: not shown
light: QSVLTQPASVSGSPGQSITISCTGTSSDVGGYNYVSWYQQHPGKAPKLMIYEVSNRPSGVSNRFSGSKSGNTASLTISGLQAEDEADYYCSSYTSTSVVFGGGTKLTVLGQPKAAPSVTLFPPSSEELQANKATLVCLISDFYPGAVTVAWKADSSPVKAGVETTTPSKQSNNKYAASSYLSLTPEQWKSHRSYSCQVTHEGSTVEKTVAPTECS
notes: IgG1, lambda
B4: VG9B461 (antibody, human IgG1, lambda)
heavy: not shown
light: B3 light with S2P, P7S, A8S, L106V
notes: IgG1, lambda
B5: VG9B458 (antibody, human IgG1, lambda)
heavy: not shown
light: B3 light
notes: IgG1, lambda
B6: VG9B131 (antibody, human IgG1, kappa, V domains shown)
VH: QVQLVQSGGTLVQPGGSLRLSCAVSGFTFSSYDMNWVRQAPGKGLEWVSYISSSSTAKYYADSVKGRFTISRDNAKNSLYLQMNSLWDEDTAVYYCAREDIVVVTPILQHWGQGTLVTVSS
VL: EIVMTQSPATLSLSPGERATLSCRASQSVSNYLAWYQQKSGQAPRLLIYDASNRATGIPARFSGSGSGTDFTLTISSLEPEDFAVYCCQQRSNWTFGQGTRLEIKR
notes: IgG1, kappa
B7: VG9B106 (antibody, human IgG1, kappa, V domains shown)
VH: EVQLVQSGAEVKKPGASVKVSCKASGYTFTGYYLHWVRQAPGQGLEWVGWINPSSGDTDYAQTFQGRVTMTRDTSISTAYMELSRLRSDDTAVYYCANELGIGVFDYWGQGTLVTVSS
VL: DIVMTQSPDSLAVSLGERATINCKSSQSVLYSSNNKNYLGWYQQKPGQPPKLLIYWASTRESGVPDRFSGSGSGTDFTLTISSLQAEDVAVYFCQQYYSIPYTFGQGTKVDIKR
notes: IgG1, kappa
B8: VG9B27 (antibody, human IgG1, kappa, V domains shown)
VH: EVQLVQSGAEVKKPGSSVKVSCKASGGTFSSYVISWVRQAPGQGLEWMGGILPILSTANYAQKFQGRVTITADKSTSTAYMELSSLRSEDTAVYYCARAHDYYYGMDVWGQGTMVTVSS
VL: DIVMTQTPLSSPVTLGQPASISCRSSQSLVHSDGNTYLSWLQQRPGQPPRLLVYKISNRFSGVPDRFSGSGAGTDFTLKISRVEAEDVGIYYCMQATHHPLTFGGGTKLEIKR
notes: IgG1, kappa
B9: VG9B163 (antibody, human IgG1, lambda, V domains shown)
VH: QVQLVQSGGGLVKPGASLKLSCAASGFTFSNHGMSWVRQTSDKRLEWVASITRGGDTTYYPDNVKGRFTISRENAKNTLYLQMSSLKSDDTALYYCTRGPLTVGYAMDYWGQGTTVTVSS
VL: QLVLTQPPSVSAAPGQKVTISCSGNSSNIGHNYVSWYQQLPGTAPKLLIYDNNQRPSGIPDRFSGSKSDTSATLGITGLQTGDEADYYCGIWDSSLSIVVFGGGTKVTVLG
notes: IgG1, lambda
B10: VG9B68 (antibody, human IgG1, kappa, V domains shown)
VH: B2 VH with Q6E, T24A, S31T, K63R, T69M, S77T, T104S, T118M
VL: B2 VL with T2I, T3V, L4M, G28S, K79R, S81T, A85P, M94I, K108R, V109L
notes: IgG1, kappa
B11: VG9B439 (antibody, human IgG1, lambda)
heavy: not shown
light: B3 light with V3A
notes: IgG1, lambda
B12: VG9B455 (antibody, human IgG1, lambda)
heavy: not shown
light: B3 light with Q1S, S2Y, V3E
notes: IgG1, lambda
B13: VG9B449 (antibody, human IgG1, lambda)
heavy: not shown
light: B3 light with S2A, L106V
notes: IgG1, lambda
B14: VG9B454 (antibody, human IgG1, lambda)
heavy: not shown
light: B3 light with S2A
notes: IgG1, lambda
B15: VG9B459 (antibody, human IgG1, lambda)
heavy: not shown
light: B3 light with S2P
notes: IgG1, lambda
B16: VG9B453 (antibody, human IgG1, lambda)
heavy: not shown
light: B3 light with V3A, L106V
notes: IgG1, lambda
B17: VG9B443 (antibody, human IgG1, lambda)
heavy: not shown
light: B3 light with V3A
notes: IgG1, lambda
B18: VG9B466 (antibody, human IgG1, lambda)
heavy: not shown
light: B3 light with Q1S, S2Y, V3E
notes: IgG1, lambda
B19: VG9B157 (antibody, human IgG1, lambda, V domains shown)
VH: B9 VH with Q1E, V5L, Q6E
VL: SSELTQDPAVSVALGQTVRITCQGDSLRSYYATWYQQKPGQAPILVIYGENNRPSGIPDRFSGSRSGNTASLTITGAQAEDEADYYCNSRDTGDHHLVFGGGTKLTVLG
notes: IgG1, lambda
B20: VG9B204 (antibody, human IgG1, lambda, V domains shown)
VH: QVQLQESGPGLVKPSETLSLTCTVSYGSFSSFYWSWIRQPAGKGLEWIGRIYTSGGTIYNPSLKSRVTMSVDTSKNQFSLKLSSVTAADTAVYYCARWLRAFDYWGQGTLVTVSS
VL: not shown
notes: IgG1, lambda

target: T1, gamma-delta T cell receptor on human γδ T cells (human); assay: flow cytometry, dose-response binding at 37 C, human γδ T cells
T1 construct: also called AG000003021 (γδ T cells)
Method: (§1) Binding of antibodies to human γδ T cells or SKW cell lines expressing Vγ9/Vδ2, Vγ9/Vδ2 or Vγ5/Vδ2 was carried out by flow cytometry. Briefly, the cells were centrifuged at 300×g for 5 minutes and the pellet was resuspended in 34 ml fresh media (in RPMI+10% FBS). 50 μL of the cells were then plated (44K cells/well) into assay plates. Samples were incubated for one hour at 37° C. in tissue culture (TC) incubator followed by wash steps by adding 100 μl FACS staining buffer. Secondary detention antibodies (A647 conjugated anti-human IgG Fc specific antibody (2 μg/mL) along with AF488 anti mouse CD3, clone OKT3 at 1 ug/mL) were added at 50 μL/well to appropriate wells according to the plate map. After incubating for 60 minutes at 37° C. in the TC incubator, cells were again washed as described above. This is followed by resuspension in 20 μL/well running buffer containing 1:1000 dilution of Sytox blue dead cell stain and the plates were run on iQue Screener.
(§2) Gating and data analysis: Human anti-human Vγ9 antibody (VG9B2 mAb at 10 nM) was used to mark the gating of positive population. All cells were first gated for singlets on SCS-A vs. SCS-H dot plot, live/dead followed by CD3 positive population, and this subset of CD3 positive population was gated for Vγ9 positive binding using positive control mAb. Cells were also assessed for cell binding of control mAbs by RL1 (A647) Geomeans from the live cell population. Advanced metrics were used and normalization metrics were chosen to calculate fold over background wells containing secondary antibody alone (designated as ‘background’ within ForeCyt settings).

In order of rising “Max. Activity” value:
1. B9  1350 fold over background
2. B6  1400 fold over background
3. B5  1410 fold over background
4. B8  1450 fold over background
5. B1  1520 fold over background
6. B7  1520 fold over background
7. B3  1540 fold over background
8. B4  1540 fold over background
9. B2  1680 fold over background

target: T2, γδ T cell receptor on human γδ T cells (human); assay: flow cytometry, DRC binding 37 C, human γδ T cells
T2 construct: also called AG000003021 (γδ T cells)
Method: as §1, §2

In order of rising “Max. Activity” value:
1. B18  946 fold over background
2. B12  1000 fold over background
3. B17  1010 fold over background
4. B16  1040 fold over background
5. B19  1070 fold over background
6. B15  1090 fold over background
7. B20  1130 fold over background
8. B13  1180 fold over background
9. B10  1190 fold over background
10. B11  1240 fold over background
11. B14  1240 fold over background
